Source: patent US20060233706A1, “Marked peptides having affinity for a phospholipid and uses” (COMMISSARIAT A L'ENERGIE, priority 2002, published 2006)

Tests used:
[1] = prior art observation; cited from earlier work
[2] = Labelling of the kidney in the same rats (fluorescence microscopy of kidney sections); assay type: in vivo; conditions: 200 μg into the jugular vein, 60 minutes, labelling linked to partial elimination of the products
Protocol: Briefly, four rats (300 g each) were anaesthetized, intubated and ventilated. Myocardial ischaemia was triggered by a transient occlusion of the coronary artery. After 30 minutes of occlusion, the coronary artery was reperfused for one hour.
At the end of the reperfusion period, the AFIM-fluorescein peptides of Example 6 were injected into the jugular vein in an amount of 200 μg of peptide for each of two of the rats in a total volume of 1 ml.
By way of comparison, 200 μg of annexin 5-fluorescein (compounds of the prior art) were injected under the same conditions for each of the other two rats in a total volume of 1 ml.
The rats were sacrificed after 60 minutes.
Five organs were stored for this study: the heart, the lung, the kidney, the liver and the brain. They were washed and rinsed in the presence of formalin. […]
A few sections were stained with haematoxylin. The sections were examined under a fluorescence microscope and the adjacent sections stained with haematoxylin were examined with a visible light microscope. The sections stained with haematoxylin (labelled H1 and H2 respectively in the appended FIGS. 1 and 2) allow visualisation of the architecture of the tissues and fluorescence microscopy to detect the labelling with AFIM-fluorescein (AFIM-F) or with annexin 5-fluorescein (A5-F).

In the case of “annexin 5: prior art annexin protein that binds anionic phospholipids in a calcium-dependent manner”, the Toxicity [1] is given as “renal toxicity” and the “Labelling of the entire renal tissue” value [2] is given as “strongly labelled”.
